Measurements as given in patent publication US5750504A, “Antimicrobial proteins” (Zeneca Agrochemicals, priority 1996, dated 1998).

Experiments:
[1] = biological target: T1, porcine α-amylase (porcine pancreas) (Sus scrofa, UniProt P00690); test: Inhibition of α-amylase; type: biochemical; details: porcine enzyme; rates as high as 200 μg/ml
T1 construct: the enzyme from porcine pancreas; purchased Sigma; host or cells: porcine pancreas
T1 sequence (P00690 16-511): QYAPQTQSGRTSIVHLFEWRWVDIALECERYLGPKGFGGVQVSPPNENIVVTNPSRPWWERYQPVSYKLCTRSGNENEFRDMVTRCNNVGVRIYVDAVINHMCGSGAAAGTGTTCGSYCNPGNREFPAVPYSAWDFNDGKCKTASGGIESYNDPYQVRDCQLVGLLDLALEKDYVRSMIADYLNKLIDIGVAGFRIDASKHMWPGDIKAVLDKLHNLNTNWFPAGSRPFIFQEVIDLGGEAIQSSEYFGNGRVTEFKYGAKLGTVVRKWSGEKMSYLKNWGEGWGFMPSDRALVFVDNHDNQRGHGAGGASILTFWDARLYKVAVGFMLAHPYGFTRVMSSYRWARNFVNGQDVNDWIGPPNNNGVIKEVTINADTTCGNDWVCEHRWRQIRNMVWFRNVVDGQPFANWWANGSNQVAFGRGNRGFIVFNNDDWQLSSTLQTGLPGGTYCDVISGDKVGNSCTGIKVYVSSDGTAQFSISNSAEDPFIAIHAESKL
Description: (§1) A crude α-amylase extract was prepared from dissected guts of adult cockroaches (Blatta orientalis) by homogenising in 20 mM Tris/HCl, pH 7.5, 10 mM CaCl2 and removal of cell-debris by centrifugation. Human and porcine α-amylases were purchased from Sigma. Type 1-α-amylaseinhibitor from wheat (purchased from Sigma) was used as a positive control. Amylase extracts were incubated with peptides for 20 min at 30° C. prior to addition of starch and enzyme activity was detected using the method of Bernfeld (1955, Methods Enzymol, Colwick and Kaplan eds, vol 1:149-158).
(§2) The α-amylase inhibition activities of Hs-AFP1 and Ah-AMP1 were compared on α-amylases from the three sources to that of the Sorgum bicolor homologue SIα3, previously reported to inhibit insect gut α-amylases (Bloch and Richardson, 1991, FEBS Lett, 279:101-104). SIα3 inhibited the activity of the enzymes from insect gut and human saliva to greater than 70% at rates as low as 5 μg/ml.

[2] = biological target: T2, Human α-amylase (human saliva) (Homo sapiens, UniProt P0DUB6); test: Inhibition of α-amylase; type: biochemical; details: human enzyme; rates as high as 200 μg/ml
T2 construct: the enzymes from insect gut and human saliva; purchased Sigma; host or cells: human saliva
T2 sequence (P0DUB6 16-511): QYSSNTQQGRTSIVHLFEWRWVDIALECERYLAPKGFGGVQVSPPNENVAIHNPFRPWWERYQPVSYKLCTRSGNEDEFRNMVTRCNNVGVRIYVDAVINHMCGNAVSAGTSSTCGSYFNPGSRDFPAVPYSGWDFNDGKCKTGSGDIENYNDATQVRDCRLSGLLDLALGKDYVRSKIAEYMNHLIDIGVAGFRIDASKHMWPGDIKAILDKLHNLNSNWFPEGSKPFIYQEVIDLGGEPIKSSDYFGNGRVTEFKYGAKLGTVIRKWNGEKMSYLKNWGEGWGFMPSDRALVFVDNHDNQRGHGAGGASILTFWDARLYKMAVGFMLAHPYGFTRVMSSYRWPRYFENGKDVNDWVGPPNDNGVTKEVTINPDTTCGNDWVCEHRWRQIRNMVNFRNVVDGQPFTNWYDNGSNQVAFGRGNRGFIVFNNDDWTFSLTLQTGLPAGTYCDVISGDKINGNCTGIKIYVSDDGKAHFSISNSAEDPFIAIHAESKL
Description: as §1, §2

[3] = system: Bacillus subtilis JHCC 553331; test: Antibacterial activity assay (microspectrophotometry); type: cell-based
Description: Antibacterial activity was measured microspectrophotometrically as follows. A bacterial suspension was prepared by inoculating soft nutrient agarose (tryptone, 10 g/l; Seaplaque agarose (FMC), 5 g/l). Aliquots (80 μl) of the bacterial suspension (10^5 colony forming units per ml) were added to filter-sterilized samples (20 μl) in flat-bottom 96-well microplates. The absorbance at 595 nm of the culture was measured with the aid of a microplate reader after 30 minutes and 24 hours of incubation at 28° C. Percent growth inhibition was calculated as described above for the antifungal activity assay.
The antibacterial activities of Ah-AMP1 and Hs-AFP1 were measured on four gram positive bacteria (Bacillus subtilis JHCC 553331; Micrococcus luteus ATCC 93411; Staphylococcus aureus ATCC 25923; Streptococcus feacolis ATCC 29212) and two gram negative bacteria (Eschericia coli HB101 and Proteus vulgaris JHCC 558711).

[4] = system: crude α-amylase extract from guts of adult cockroaches; test: Inhibition of α-amylase; type: biochemical, Blatta orientalis; details: cockroach gut enzyme; rates as high as 200 μg/ml
Description: as §1, §2

Substance | inhibition of α-amylase activity [1] | inhibition of α-amylase activity [2] | inhibition of bacterial growth ([3]; at 100 μg/ml) | inhibition of α-amylase activity [4] | inhibition of bacterial growth ([3]; tested at 200 μg/ml)
Ah-AMP1: Aesculus hippocastanum antimicrobial protein 1; 5 kDa polypeptide purified from seeds, 50 amino acids, SEQ ID NO 2 (LCNERPSQTWSGNCGNTAHCDKQCQDWEKASHGACHKRENHWKCFCYFNC) | no inhibition | no inhibition | inhibited growth | no inhibition | –
Hs-AFP1: Heuchera sanquinea antifungal protein 1; 5 kDa polypeptide purified from seeds, 54 amino acids, SEQ ID NO 1 (DGVKLCDVPSGTWSGHCGSSSKCSQQCKDREHFAYGGACHYQFPSVKCFCKRQC) | no inhibition | no inhibition | – | no inhibition | did not inhibit the growth
